Key:
[1] = CD31 staining, left ventricle, 28 days post-MI; details: glycan lost; control: Luc modRNA
[2] = weighing, 28 days post-MI; details: glycan lost; control: Luc modRNA
[3] = Masson trichrome staining, 28 days post-MI; details: glycan lost; control: Luc modRNA (hFSTL1 modRNA not significant)
[4] = echography, %EF and %FS, 28 days post-MI; details: glycan lost; control: Luc modRNA (hFSTL1 modRNA not significant)
[5] = CD45 staining 7 days post-MI; details: glycan lost; control: hFSTL1 modRNA
[6] = proliferation markers in non-CMs 7 days post-MI; details: glycan lost; control: hFSTL1 modRNA
[7] = CM size in heart sections 7 days post-MI; details: glycan lost; control: control constructs

B1: human FSTL 1 (hFSTL1): N180Q (Mut-1) (protein)
parent chain: MWKRWLALALALVAVAWVRAEEELRSKSKICANVFCGAGRECAVTEKGEPTCLCIEQCKPHKRPVCGSNGKTYLNHCELHRDACLTGSKIQVDYDGHCKEKKSVSPSASPVVCYQSNRDELRRRIIQWLEAEIIPDGWFSKGSNYSEILDKYFKNFDNGDSRLDSSEFLKFVEQNETAINITTYPDQENNKLLRGLCVDALIELSDENADWKLSFQEFLKCLNPSFNPPEKKCALEDETYADGAETEVDCNRCVCACGNWVCTAMTCDGKNQKGAQTQTEEEMTRYVQELQKHQETAEKTKRVSTKEI
- other: capillary density post-MI [1]: increases
- other: heart weight-to-body weight ratio [2]: increases
- other: scar size post-MI [3]: decreases
- other: cardiac function post-MI [4]: increases
- other: leukocyte infiltration in heart [5]: no change
- other: non-CM proliferation in heart [6]: no change
- other: CM size / hypertrophy [7]: no change

B2: human FSTL 1 (hFSTL1): Mut-(1–3) (protein)
parent chain: MWKRWLALALALVAVAWVRAEEELRSKSKICANVFCGAGRECAVTEKGEPTCLCIEQCKPHKRPVCGSNGKTYLNHCELHRDACLTGSKIQVDYDGHCKEKKSVSPSASPVVCYQSNRDELRRRIIQWLEAEIIPDGWFSKGSNYSEILDKYFKNFDNGDSRLDSSEFLKFVEQNETAINITTYPDQENNKLLRGLCVDALIELSDENADWKLSFQEFLKCLNPSFNPPEKKCALEDETYADGAETEVDCNRCVCACGNWVCTAMTCDGKNQKGAQTQTEEEMTRYVQELQKHQETAEKTKRVSTKEI
- other: scar size post-MI [3]: no change
- other: cardiac function post-MI [4]: no change
- other: leukocyte infiltration in heart [5]: no change
- other: non-CM proliferation in heart [6]: no change
- other: CM size / hypertrophy [7]: no change

B3: human FSTL 1 (hFSTL1): N175Q (Mut-2) (protein)
parent chain: MWKRWLALALALVAVAWVRAEEELRSKSKICANVFCGAGRECAVTEKGEPTCLCIEQCKPHKRPVCGSNGKTYLNHCELHRDACLTGSKIQVDYDGHCKEKKSVSPSASPVVCYQSNRDELRRRIIQWLEAEIIPDGWFSKGSNYSEILDKYFKNFDNGDSRLDSSEFLKFVEQNETAINITTYPDQENNKLLRGLCVDALIELSDENADWKLSFQEFLKCLNPSFNPPEKKCALEDETYADGAETEVDCNRCVCACGNWVCTAMTCDGKNQKGAQTQTEEEMTRYVQELQKHQETAEKTKRVSTKEI
- other: leukocyte infiltration in heart [5]: no change
- other: non-CM proliferation in heart [6]: no change

B4: human FSTL 1 (hFSTL1): N144Q (Mut-3) (protein)
parent chain: MWKRWLALALALVAVAWVRAEEELRSKSKICANVFCGAGRECAVTEKGEPTCLCIEQCKPHKRPVCGSNGKTYLNHCELHRDACLTGSKIQVDYDGHCKEKKSVSPSASPVVCYQSNRDELRRRIIQWLEAEIIPDGWFSKGSNYSEILDKYFKNFDNGDSRLDSSEFLKFVEQNETAINITTYPDQENNKLLRGLCVDALIELSDENADWKLSFQEFLKCLNPSFNPPEKKCALEDETYADGAETEVDCNRCVCACGNWVCTAMTCDGKNQKGAQTQTEEEMTRYVQELQKHQETAEKTKRVSTKEI
- other: leukocyte infiltration in heart [5]: no change
- other: non-CM proliferation in heart [6]: no change

Source: article PMC6171324
